The source of these data is US11174322B2, “Antibodies and peptides to treat HCMV related diseases” (priority 2017, dated 2021).

The assay has as its target T1, full-length pUL89 (His-pUL89) (Human cytomegalovirus, UniProt P16732).
T1 construct: made in house; host or cells: HEK293
Description: Alpha assay (Amplified Luminescent Proximity Homogeneous Assay) of the pUL56/pUL89 protein-protein interaction. It counts as binding, human cytomegalovirus (HCMV), AD169. Here is the method:
FIG. 2: Determination of pUL56 binding domains for the interaction with pUL89 Alpha assay results. The Alpha assay for the binding of full-length pUL89 (His-pUL89, 1.5E+03 nM) was performed with 5E+02 nM wild-type pUL56 (HA-pUL56) or a deletion mutant of pUL56 (HA-pUL56 Del W671-F680). As a negative control, proteins were used alone and a reaction was performed without proteins (mock). Two measures for each reaction were performed in duplicate.
Alpha (Amplified Luminescent Proximity Homogeneous Assay) experiments were conducted according to the manufacturer's protocol (PerkinElmer, USA). Five μL of transfected MRC-5 lysate with HCMV-BAC is first disposed in wells of a 96-well AlphaPlate. The final concentration of each proteins was optimized to obtain the best value of interaction. Ten μL of each purified protein were combined (to give a final assay concentration of 500 nM of 3xHA-pUL56 and 1.5 μM of 6xHis-pUL89). Ten μL and 15 μL of 10 mg/mL of donor beads and acceptor beads, respectively, were added and incubated for 1 hour. Plates were read on a PerkinElmer EnVision™ plate reader using an excitation wavelength of 680 nm and emission detection was set at 615 nm.
HEK293 were transfected with SC784 and pCI-neo His-89 expression plasmids and protein-protein interactions were carried out by the Alpha assay. This technology represents a powerful method to highlight protein-protein interactions (Ullman et al., 1994) (Waller et al., 2010). […]
Alpha assay needs both acceptor and donor beads. […] In the absence of a specific biological interaction between proteins, singlet molecules produced by the Donor bead cannot be detected beyond 200 nm from the Acceptor bead (data not shown). […] Alpha assays with 3xHA-pUL56 and 6xHis-pUL89 results in the production of over 9,000 relative light units (RLU), over two-fold more than negative controls (3xHA-pUL56 or His-pUL89) (FIG. 2). pUL56 depleted of its W671-F680 fragment was in turn soaked with pUL89-WT and their affinity assessed by Alpha analysis. […]

T1 sequence (P16732 whole entry): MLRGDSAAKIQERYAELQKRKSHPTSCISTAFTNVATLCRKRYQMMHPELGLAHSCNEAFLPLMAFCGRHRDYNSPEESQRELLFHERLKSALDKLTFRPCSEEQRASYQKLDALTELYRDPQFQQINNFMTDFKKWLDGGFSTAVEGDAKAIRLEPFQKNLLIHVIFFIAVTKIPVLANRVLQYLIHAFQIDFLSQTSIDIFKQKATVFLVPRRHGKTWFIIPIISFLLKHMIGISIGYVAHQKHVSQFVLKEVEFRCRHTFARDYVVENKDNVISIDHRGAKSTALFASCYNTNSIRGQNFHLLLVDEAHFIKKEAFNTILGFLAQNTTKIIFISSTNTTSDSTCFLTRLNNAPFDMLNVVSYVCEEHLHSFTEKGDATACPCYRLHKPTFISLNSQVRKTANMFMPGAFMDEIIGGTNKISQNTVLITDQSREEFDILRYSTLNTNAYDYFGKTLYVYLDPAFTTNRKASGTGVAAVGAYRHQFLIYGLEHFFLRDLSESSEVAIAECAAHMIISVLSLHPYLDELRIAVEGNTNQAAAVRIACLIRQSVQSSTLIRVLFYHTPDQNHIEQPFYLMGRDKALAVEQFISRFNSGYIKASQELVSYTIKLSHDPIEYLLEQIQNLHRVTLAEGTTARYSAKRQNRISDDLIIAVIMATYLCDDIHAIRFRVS

B1: pUL56 depleted of its W671-F680 fragment (protein)
chain: MEMNLLQKLCVVCSKCNEYAMELECLKYCDPNVLLAESTPFKRNAAAIVYLYRKIYPEVVAQNRTQSSLLTLYLEMLLKALHEDTALLDRALMAYSRQPDRAAFYRTVLRLDRCDRHHTVELQFTDNVRFSVSLATLNDIERFLCKMNYVYGILAPEAGLEVCAQLLELLRRLCGISPVARQEVYVEGTTCAQCYEELTIIPNQGRSLNKRLQGLLCNHIAVHRPSSQSDVNIQTVEQDLLDLTTRIPHLAGVLSALKSLFSSSSAYHSYIQEAEEALREYNLFTDIPERIYSLSDFTYWSRTSEVIVKRVGITIQQLNVYHQLCRALMNGISRHLYGEDVEDIFVLGEKALDGEERMFVGSVFAAPNRIIDLITSLSIQAFEDNPVFNKLHESNEMYTKIKHILEEIRRPLPDGTGGDGPEGEAIHLRGREAMSGTGTTLMTASNSSNSSTHSQRNNGGGGRARGGGKKAVGGGANGQDGDGSENGLRVRNCDEHEALDLVDARSRIHNVTREVNVRKRAYLQKVSEVGYGKVIRCIKTQERLTSKLIDVNLVGPLCLDFISKLMNGFLYRSQYHQDQDVVDVGDQFTYDEHLYVVNNLIHKSLPVESLPLLGQQIYELCNGPLFTHCTDRYPLSHNVDMAYACDNAGVLPHVKDDLVKCAEGTVYPSENFSDCQDLNVLQKEMWMHVRELVLSVALYNETFGKQLSIACLRDELHPDRDVILTYNKEWPLLLRHEGNLYKSKDLYLLLYRHLSRPDESGDVPTAPVAKPSTLTAAAAVSGAFREPDRPWLPSPYPSSSTAGVSRRVRATRKRPRRASSLLDLARDEHGIQDLVPGSLR
modifications: left off: small tags and cut ends
Regarding B1, the “decrease of the interaction signal with pUL89-WT” value (pUL56 deletion mutant versus wild-type pUL56, FIG. 2) was 50%.

B2: 3xHA-pUL56: full-length amino-terminal 3xHA-tagged pUL56, HCMV large terminase subunit, purified from transfected HEK293 (protein)
chain: MEMNLLQKLCVVCSKCNEYAMELECLKYCDPNVLLAESTPFKRNAAAIVYLYRKIYPEVVAQNRTQSSLLTLYLEMLLKALHEDTALLDRALMAYSRQPDRAAFYRTVLRLDRCDRHHTVELQFTDNVRFSVSLATLNDIERFLCKMNYVYGILAPEAGLEVCAQLLELLRRLCGISPVARQEVYVEGTTCAQCYEELTIIPNQGRSLNKRLQGLLCNHIAVHRPSSQSDVNIQTVEQDLLDLTTRIPHLAGVLSALKSLFSSSSAYHSYIQEAEEALREYNLFTDIPERIYSLSDFTYWSRTSEVIVKRVGITIQQLNVYHQLCRALMNGISRHLYGEDVEDIFVLGEKALDGEERMFVGSVFAAPNRIIDLITSLSIQAFEDNPVFNKLHESNEMYTKIKHILEEIRRPLPDGTGGDGPEGEAIHLRGREAMSGTGTTLMTASNSSNSSTHSQRNNGGGGRARGGGKKAVGGGANGQDGDGSENGLRVRNCDEHEALDLVDARSRIHNVTREVNVRKRAYLQKVSEVGYGKVIRCIKTQERLTSKLIDVNLVGPLCLDFISKLMNGFLYRSQYHQDQDVVDVGDQFTYDEHLYVVNNLIHKSLPVESLPLLGQQIYELCNGPLFTHCTDRYPLSHNVDMAYACDNAGVLPHVKDDLVKCAEGTVYPSEWMVVKYMGFFNFSDCQDLNVLQKEMWMHVRELVLSVALYNETFGKQLSIACLRDELHPDRDVILTYNKEWPLLLRHEGNLYKSKDLYLLLYRHLSRPDESGDVPTAPVAKPSTLTAAAAVSGAFREPDRPWLPSPYPSSSTAGVSRRVRATRKRPRRASSLLDLARDEHGIQDLVPGSLR
modifications: left off: small tags and cut ends
notes: full-length amino-terminal 3xHA-tagged pUL56, HCMV large terminase subunit, purified from transfected HEK293
As for B2, the “Alpha assay signal relative to negative controls (3xHA-pUL56 or His-pUL89 alone)” value (500 nM 3xHA-pUL56 with 1.5 μM 6xHis-pUL89) is reported as “over two-fold”. The “Alpha assay signal (light production at 615 nm)” value (500 nM 3xHA-pUL56 with 1.5 μM 6xHis-pUL89, purified proteins from HEK293) is on record as “over 9,000 relative light units (RLU)”.
